{
  "source": "paper PMC4499135",
  "test_in_all_cases": "EMSA",
  "key": {"TRF1": {"tested_on": "TRF1", "conditions": "20 mM Hepes pH 7.9, 100 mM NaCl, 50 mM KCl, 1 mM MgCl2, 0.1 mM EDTA, 1 mM DTT, 5% glycerol, 0.5 mg/ml BSA, 0.1% NP-40, chicken erythrocyte nucleosome carrier …"}, "TRF2AΔB": {"tested_on": "TRF2AΔB", "conditions": "20 mM Hepes pH 7.9, 100 mM NaCl, 50 mM KCl, 1 mM MgCl2, 0.1 mM EDTA, 1 mM DTT, 5% glycerol, 0.5 mg/ml BSA, 0.1% NP-40, chicken erythrocyte nucleosome carrier …"}, "TRF2": {"tested_on": "TRF2", "conditions": "20 mM Hepes pH 7.9, 100 mM NaCl, 50 mM KCl, 1 mM MgCl2, 0.1 mM EDTA, 1 mM DTT, 5% glycerol, 0.5 mg/ml BSA, 0.1% NP-40, chicken erythrocyte nucleosome carrier …"}, "TRF2ΔB": {"tested_on": "TRF2ΔB", "conditions": "20 mM Hepes pH 7.9, 100 mM NaCl, 50 mM KCl, 1 mM MgCl2, 0.1 mM EDTA, 1 mM DTT, 5% glycerol, 0.5 mg/ml BSA, 0.1% NP-40, chicken erythrocyte nucleosome carrier …"}, "TRF1-Myb": {"tested_on": "TRF1-Myb", "conditions": "histone octamer, salt dilution; 20 mM Hepes pH 7.9, 100 mM NaCl, 50 mM KCl, 1 mM MgCl2, 0.1 mM EDTA, 1 mM DTT, 5% glycerol, 0.5 mg/ml BSA, 0.1% NP-40, chicken erythrocyte nucleosome carrier …"}, "TRF2-Myb": {"tested_on": "TRF2-Myb", "conditions": "histone octamer, salt dilution; 20 mM Hepes pH 7.9, 100 mM NaCl, 50 mM KCl, 1 mM MgCl2, 0.1 mM EDTA, 1 mM DTT, 5% glycerol, 0.5 mg/ml BSA, 0.1% NP-40, chicken erythrocyte nucleosome carrier …"}, "[1]": {"conditions": "intact histone octamer, scale: fold higher affinity vs naked Tel2-601-Tel2"}, "[2]": {"conditions": "histone tails removed by trypsin"}},
  "data": [
    {"substance": "Tel2-601-Tel2 NCP", "values": [
      {"measurement": "binding signal", "setting": "TRF1; [1]", "value": 3},
      {"measurement": "binding signal", "setting": "TRF2AΔB; [1]", "value": 2},
      {"measurement": "binding signal", "setting": "TRF2; intact histone octamer, scale: fold lower affinity vs naked Tel2-601-Tel2", "value": 2},
      {"measurement": "binding signal", "setting": "TRF2ΔB; [1]", "value": 3}
    ]},
    {"substance": "Tel2-601-Tel2 tailless NCP", "values": [
      {"measurement": "binding signal (fold lower affinity vs intact NCP)", "setting": "TRF1; [2]", "value": 3},
      {"measurement": "binding signal (fold lower affinity vs intact NCP)", "setting": "TRF2AΔB; [2]", "value": 3},
      {"measurement": "binding signal (fold higher affinity vs intact NCP)", "setting": "TRF2; [2]", "value": 2},
      {"measurement": "binding signal (fold lower affinity vs intact NCP)", "setting": "TRF2ΔB; [2]", "value": 2}
    ]},
    {"substance": "Tel8-L NCP", "values": [
      {"measurement": "binding signal (fold lower affinity vs naked Tel8-L)", "setting": "TRF1-Myb", "value": 11},
      {"measurement": "binding signal (fold lower affinity vs naked Tel8-L)", "setting": "TRF2-Myb", "value": 13},
      {"measurement": "binding signal (fold lower affinity vs naked Tel8-L)", "setting": "TRF2; C1/2 extrapolated, 3 experiments, histone octamer, salt dilution", "value": 100}
    ]}
  ]
}
